{"source": "paper PMC10589136", "about": "“Prenylation of dimeric cyclo-L-Trp-L-Trp by the promiscuous cyclo-L-Trp-L-Ala prenyltransferase EchPT1” (Applied Microbiology and Biotechnology, 2023)", "proteins": {"B1": {"name": "EchPT1 (Aspergillus ruber) (protein)", "chain": "MPSEVLTSYYDYPTHDQEAWWRDTGPLFGRFLKGAGYDVHTQYQYLVFFIKNILPSLGPYPARWRSTITPTGLPIEYSLNFQLNSRPLLRIGFEPLSRFSGTPQDPYNKIAAADLLNQLSKLQLHEFDTQLFNHFTNEFELSKSESESLQKQGGINGKSTVRSQTAFGFDLKGGRVAVKGYAFAGLKNRATGTPVGQLISNSIRNLEPQMHCWDSFSILNSYMEESDGWNEYSFVSWDCVDIERSRLKLYGVHNAVTWDKVKEMWTLGGRIENNATIKTGLELLQHMWSLLQINEGDRDYKGGFAADNGGKTLPIIWNYELNKGSPHPAPKFYFPVHGENDLQVSKSISEFFTHLGWQDHARQYPHLLRQIYPNQNISQTERLQAWISFAYNERTGPYLSVYYYSAERPPWGSDQVK"}}, "experiment_in_all_cases": "purified protein", "key": {"purified protein [1]": {"substrate": "O=C1N[C@@H](Cc2c[nH]c3ccccc23)C(=O)N2C3Nc4ccccc4C3(C34C[C@H]5C(=O)N[C@@H](Cc6c[nH]c7ccccc67)C(=O)N5C3Nc3ccccc34)C[C@@H]12", "settings": "1 mM DMAPP, 5 mM CaCl2, Tris-HCl pH 7.5, 37 °C"}, "purified protein [2]": {"substrate": "O=C1N[C@@H](Cc2cn(C34C[C@H]5C(=O)N[C@@H](Cc6c[nH]c7ccccc67)C(=O)N5C3Nc3ccccc34)c3ccccc23)C(=O)N[C@H]1Cc1c[nH]c2ccccc12", "settings": "1 mM DMAPP, 5 mM CaCl2, Tris-HCl pH 7.5, 37 °C, 30 min, formation of monoprenylated 4a1"}, "purified protein [3]": {"substrate": "CC(C)=CCOP(=O)(O)OP(=O)(O)O", "settings": "1 mM tetratryptomycin A (3) as prenyl acceptor, 5 mM CaCl2, Tris-HCl pH 7.5, 37 °C, 30 min, formation of 3a2"}, "[4]": {"settings": "20 min, formation of diprenylated 5a2"}, "[5]": {"settings": "30 min, formation of diprenylated 3a2"}}}
{"protein": "B1", "values": [{"measurement": "Km", "setting": "purified protein [1]; [4]", "result": "50 ± 5", "unit": "µM"}, {"measurement": "kcat", "setting": "purified protein [1]; [4]", "result": "0.03 ± 0.001", "unit": "s⁻¹"}, {"measurement": "kcat/Km", "setting": "purified protein [1]; [4]", "result": 600, "unit": "M⁻¹ s⁻¹"}, {"measurement": "Km", "setting": "purified protein [1]; [5]", "result": "60 ± 7", "unit": "µM"}, {"measurement": "kcat", "setting": "purified protein [1]; [5]", "result": "0.05 ± 0.0003", "unit": "s⁻¹"}, {"measurement": "kcat/Km", "setting": "purified protein [1]; [5]", "result": 833, "unit": "M⁻¹ s⁻¹"}, {"measurement": "Km", "setting": "purified protein [2]", "result": "250 ± 30", "unit": "µM"}, {"measurement": "kcat", "setting": "purified protein [2]", "result": "0.14 ± 0.01", "unit": "s⁻¹"}, {"measurement": "kcat/Km", "setting": "purified protein [2]", "result": 560, "unit": "M⁻¹ s⁻¹"}, {"measurement": "Km", "setting": "purified protein [3]", "result": "50 ± 7", "unit": "µM"}, {"measurement": "kcat", "setting": "purified protein [3]", "result": "0.03 ± 0.002", "unit": "s⁻¹"}, {"measurement": "kcat/Km", "setting": "purified protein [3]", "result": 600, "unit": "M⁻¹ s⁻¹"}]}
